Earlier results as cited in publication PMC2225448.
pKd: −log10 of the molar value.

What was measured:
[1] = target: EGFR pY1069 pY1069 (Homo sapiens) (UniProt P00533)
[2] = target: EGFR pY1069 (Homo sapiens) (UniProt P00533)
ErbB2 (Homo sapiens) = ErbB2 (Homo sapiens) (UniProt P04626)

Chain of Grb7 (Q14451 whole entry): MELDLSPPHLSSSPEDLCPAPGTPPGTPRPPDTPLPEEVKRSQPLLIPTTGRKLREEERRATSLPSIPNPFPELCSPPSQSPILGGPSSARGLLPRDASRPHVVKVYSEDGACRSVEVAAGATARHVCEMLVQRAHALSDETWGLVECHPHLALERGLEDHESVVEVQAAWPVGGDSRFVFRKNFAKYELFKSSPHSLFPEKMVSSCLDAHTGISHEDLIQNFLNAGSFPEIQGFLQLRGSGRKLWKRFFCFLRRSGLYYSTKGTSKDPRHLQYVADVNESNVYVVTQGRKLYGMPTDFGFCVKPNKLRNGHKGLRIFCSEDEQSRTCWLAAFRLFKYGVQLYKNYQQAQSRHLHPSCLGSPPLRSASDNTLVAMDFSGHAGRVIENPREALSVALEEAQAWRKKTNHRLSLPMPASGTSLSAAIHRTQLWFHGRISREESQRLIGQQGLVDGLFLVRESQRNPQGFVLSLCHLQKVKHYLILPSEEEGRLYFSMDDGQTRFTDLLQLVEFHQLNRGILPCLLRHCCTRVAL

pKd [1]	pKd [2]	pKd (ErbB2 (Homo sapiens))	Substance
6.40	6.40	–	Cbl (from UniProt P22681)
–	–	5.64	Grb7 (from UniProt Q14451)
